# Assay results: a protein production outcome set (Wang et al. 2014)
# Assay: label from the status in PepcDB records
# 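Note: failed if final PepcDB status was selected cloned or expressed and not failed if soluble or beyond.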
row,Sequence,protein production
1,MRKLAAFLGLVGLLSLGLAQSAQEILDRVEKNLSTPWQATVQGRIQGPGGEEELLARVYALPQARLFRVEFLKPGSLEGNFTVITEKEVWNYLYLTNQLVISPREKAKIQGLGFAPQGLGDLKALSEQVDLRLEGEVRLPEGMAWKLVGRSKENQGFAAMELYILKADPRPLRFVFLDEKGKVLADLKVVEFKRTNLTEAQLKRYPKDAQVVRR,not failed
2,MKAIIMAGGEGSRLRPLTCKRPKPLVPVANRPVMEYCVDLLRELGIKEVGVTLQYLPQLIEEYFGDGSDFGLHLHYFVEDKPLGTAGSVKNAAAILDETFVVVSGDALTDFDLRPAIARHKESGALATLVLTAVDNPLEYGVVITNPDGSIRSFLEKPSWGEVFSDRVNTGIYILEPEVLELIPEGRPFDFSKDLFPRLLKEKRPLYGVTLSGYWCDIGNLTQYRQAQEDILRGRVKVRVVGQDKGGGVVMGEGVEIAPGARIEGPVLIGGACHIATGAVVGPFTVLGPYTRVEEGATVRRSVLWDNVYTGEGANVRGAVVCSRASLQRRVQVYEGAVIGDGTQVDAGAEVRPEVKVWPEKTLGRETVVHESLIWGRGVARPLFVGSQAPGYLHGDLTPFQVTRLGMAYGASFPPGTTVGLSTFAGGAGEMLYKALAAGLMAAGVQVADLGRLLTPIHRFAVRSLGLDGGCHIKRDAAERDKVWLHLVNSRGHDLNPAAVRKIENLYWREDGRRVQEVPASIYFPGLEGAYRDWLLATLGDHGLKKRALRVALGGQGQVAGVAGTILQDAGAEVIRLDLDPAKTWQAVQEDLPYFAGEIRRYGADLGAALDSNGEELILFTGEGRRVAPAQQMTLLARVYLETHRGASLVLPVTAPRVLEQVAGGLHGRVERVKGHPGIYHEAMARADGETALGQQHLQLDALAALVHILDWLASREESLDSAVAALPPVYTASRTVACPWEAKGRVMRTLISEEPADGVELLDGVQVRHGKGWSLVLPDGETPHYHIYSEAFSQEAAEELAGFYEERLKELIAREKSKGR,failed
3,MTHVTLRSEFETLIDPYAPVAQVGTGFDFTEGPIWHPIDHYLLFSDMPGDVRRRWDARRGMAEVKRPSNKCNGMTYDAELNLIVCEHATSSLIRERPDGRREVLASHFGGQELNSPNDVCVHSSGAIYFSDPWYGRMPVYGVERPRQLGFQGVYRVMPGGEPKLVVDRNLFDQPNGLCFSPDERLLYVNDTVQALIRVFDVNADGTLSNARVFASSIKSELEPGLPDGMKCDQHGNVWVTAPGGVWVYSPRGELLGKVRVPELVANLAWGGPDFRTLYLTSTHSVYAIPTRVGPRHEPYMSGRRGGAGASAGPAAAAPILTDGEMRLDPQRCAMIIQDLQNDVIMDGGAFDGSGAPAHAKQQHVVENVRRLAEAARARGVAIIHVWFVVEPGAPGVTLNAPLFEGLVDSKAMVRGSWGAAPVSGLEPRPGDFVVEKMRMSAWEGTRLETILKATGRDMIINTGAWTNMSVEHTARTGADKGYFMIVPEDCCSTMNADWHSASINFAMQNVAIVTRADAVIRALGLEHHHHHH,failed
4,MDKLRGMETFIAVVECGSFTGAASRLGLSAVMVGKYIAQLESQLATRLLERNTRRQSLTDAGRVYFDEAKRVMEQVSIAESAVERLRLAPAGTLRVSAPTSFGASVIAPLTATFLQAWPAVRVELDLTNRMVDLVDEGVDLAIRIGEIHQEDLVARYLAPYRMVICAAPAYLARYGTPGTPEDLTDHLCLSHTVWTARNEWRLPGVEGEVRWKRDAVLRCNDGYALRQAAIAGAGLLMQPEVLLADALASGSLVRVLEAWTPQPRPVHLLWRQDRRPLPKLTQFIAHLQQGMADALTTTRASE,failed
5,MQYVMSIIGIIAVLGLCFALSNNKSKINFRAIAIMIGFQILIGWFMFATKIGQQIIIFISKVFNKLIKLGTTGVDFLFNGIHRDFVFFLNVLLIIVFFSALLSIFSYLGVLPFIVRVVGGAISKITGLPRVESFHAVNSVFFGSSEALIVIKNDLQHFNKNRMFIICCSAMSSVSASVTASYVMMLDAKYVLAALPLNLFSSLIVCSLLTPVDTKKEDEVIQKFDRTLFGDSFIGAMINGALDGLKVAGIVAALMIAFIGVMEVVNYVISAASGAMGHAVTLQQIFGYVLSPFAFLMGIPTQDIIPAGGIMGTKIVLNEFVAILDLKDTATTLAPRTVGIVTVFLISFASISQIGAIVGTIRALSEKQGSVVSKFGWKMLFASTLASILSATIAGLFI,failed
6,MSIVIVGGNERMVCQYEDICKGYGCKAKVFAKEKGAMKKKIGAPDLMILFTGTVSHKMVNCAVEEAKKKSIPVCRCHTSSASALESILREYCALEHHHHHH,failed
7,MVIFIMKKRYICILPYSLSYGGVFIDCKEVIANYWNFRSSTYKNGINGFDEEERAVWKQIFENSLASGKRLKVLDVGTGTGFLALLFAEMGHEVSGIDLSEGMLEKARHNADNMGLEISLFHGDAENLPFEDCSFDLVVNKYLLWTLQEPASAVREWKRVLKPGGMIFAIDGNWFDPRPDRYIKRMLYGLAERFAKKNQYNLIFKKSYGPIRNSLPLYEKISPKNISFLFSETGLMNTEISPLLEVQKFQRNRHSFSRRIFENNSIFLISGQKNLEHHHHHH,failed
8,MKRFARKETIYLRGEEARTLYRLEEGLVRVVELLPDGRLITLRHVLPGDYFGEEALEGKAYRYTAEAMTEAVVQGLEPRAMDHEALHRVARNLARQMRRVQAYEAHLQTGELRARIARYLLFLADTPLSARDRQGIYVTVSHEEIADATASIRESVSKVLADLRREGLIATAYRRVYLLDLAALEREAGSALEAA,not failed
9,MAFIAVHDGLTGLHNRTFLTDHFDTLIKGAHRRRERLAVVQLDLDRFKQINDTLGHAAGDYVLVVTAQRMRDSCRASDLCARLGGDEFVMILNGAGSTEDINMLARRILAHINEPIVFQGTTILPGASGGIAVYPIDADNAQDLLVHADLALYSAKKLGGGNFSFFSEELRRELDYRKQLEHDIKVAISERAFQVYFQPQVSLTDGTISGIEALVRWNHHERGMISPGEFIPVAEKCGFMPEIGRIVIGKAINEAAEWNRAGIAFGRLAVNVSGTELREHDFDAFLFETLEKAGLPPQKLSLEIVESVILDDEKTGIAAKLRHIRAAGIHLELDDFGTGYASLSHVNPNEIDRLKIDRRFVQNIHENGDNSKIVRAITELARGLGISIVAEGAETEAELDSLMAIGCDQVQGYSIAFPMPQDKALEWLTARMPKKAKLRVLQGSLA,failed
10,MAYIYGFRTLDRRVFYLALSRLIRASGRVSSFIFLPLIFIEIYSISFLITGLILGSSAIAMAFVQYYSGRWTDRIGRRFFLIVIPIPAAVFYFLMFTTVYLHMSVILLIIFWYGTIITNSLQYPAIEASVADVTSTSERLSGYTLIRIMANLGAAVGPLAGGFLAGINFSYIFLLASIFTVIELFILYYNVRETFLPARAIAEKIKLKIFKTDRFFFLFTLVGVFLGFTLRQNGPTLTVYAFDLKNLPLMDIGYLYSLNGIVVIALQMPILRLMSSRSNPVFWRGIGTIYYSIGFVILGIAPTFLYILLAMFIFTVGEDFMSPTTQTIITTLAPAEKKGSYIGSYNLLTSFGRFFGTIFGLYFLFIYQKTTFTFWIIIATSTGVIGLLYIFMSESFIKRTSKIATLPGKA,failed
11,MGSGESKANTAETPEVLDVKLTGPEKVNPGESAAYEAAVSYGDEAVTDADEVEFEVWKEGEKDASQMFKVKQEKGVYRLETTFKEDGVYTVQSHVTAKKQHSMPTLKVQVGDADAASNQSEEEHSHHHLEHHHHHH,not failed
12,MGNHAGKRELNAEKASTNSETNRGESEKKRNLGELSRTTSEDNEVFGEADANQNNGTSSQDTAVTDSKRTADPKNAWQDAHPADPGSRPHLIRLFSRDAPGREDNTFKDRPSESDELQTIQEDSAATSESLDVMASQKRPSQRHGSKYLATASTMDHARHGFLPRHRDTGILDSIGRFFGGDRGAPKRGSGKVSSEE,failed
13,MSSSSVEQQVVQHFSHTHPLTKVDEYGEFTCGGCKTYGFGKTYRCAPCDYVLHDHCATCPFTLISFMHPQHELRLFVNGSENMCNICHRLVEGVYYHCETCGFDVHPLCTQHHQHVSYVPHPAHLLELSQCGASNTCMVCRGAILSWRYKCGPCMLDVHVECVNSSAPAATEPQMDLNTSQDPQPYNDECGGIHNYEHTNKGQVSGPSKRRRVFRFFKDVTVEVVSSIITEML,failed
14,GEVKQIVGTPRDITQRKRREQMLKSRRRKIEALYRATSGLLSVETRDAVPGRIAEVLQEVFDFPLRHVGLVEGEMLVPKETVGEDLSRMPEPKAQPLSEDLVATRAIQAGEAVVVESTGGLENDLDYGTLSTLAGIPIGGHGAVVVGKEAGTFDALDLRLLEVLGGYGTLVLGRLEREERLVQAREEAEEAAQLKSAMLANMSHEVRTP,failed
15,MATTLLSPTRFVHGLRFDNLRGDIFGGITAAIVALPLALAFGVASGAGPIAGLYGAICTGFFAALFGGTPAQISGPTGPMTVVMASTFANLTASNPENGWAMALTVVMFGGIFQVVLGLLGLGKYITFMPYTVISGFMSGIGVIIVILQIAPLLGHQTAPGVVPSLQAIPTYLNDVNFAALGLGLIALAIVFFSPPRLNRILPAPLIALVLGTIISMIFFGNVSLPRIGEIPSGLPSLHLPYLSWGSLQQMLLYSIMLAVLGSLDSLLTSLVADNISRSHHDSDRELVGQGIGNLVSGLCGGLPGAGATMRTVININSGGKTPIAGMIHALILLMIVLKAGQLTEPIPHAVLAGILIKVGIDIVDWSFLKRAHQLSTKGAGLMYLVLGLTVFVDLITAVAVGVFVANLFTVKNLTDLQLESIKSVTRADGEDWLLEEEQQILRAANGRIFMFHLSGPMSFGAAKSIARRLAIVENYDVLILDLATVPRLGVTALLAIETMLKDALAKQREVFLVGAKGQVQARLQRLPVLAQLSPHHRLESRLLALQMAAVCINVD,failed
16,MKYADISHFSHPQHNLKFDYTEKPFKCDGCNEVGIGSRYRCSGDNHGSCDFDLHAHCALPSASITHPFYKKCTFQFVARPPGNERRYCNACEKDVSGFLYHCKACGFDLHPCCAMLPMVLDDGETNLFLYRKVSSSCHRCGKKGRSWSYRSLFLILFLFFHYYDTKD,failed
17,ITIRDDILFQSGSAELTAGKREIAKEIGELFAQGKGTMEGIVSGHTDNVPISTSIYSSNWELSVARAVNFMEAIIQENSEVNPGEFSARGYGEFRPVAKNDIAANREKNRRVEIMVRPINRDTLDEDE,failed
18,MEIKAYKKKNGTTAYKFKAYIGKKNGKSQYAEKSGFKTKADARAALHNIQEEIDNPTPKSSMTFKELYDEWLLVYEKEVQNSTYYKTTRAFEKHVLPVIGSTKLSDFTPMELQNFRNDLSEKLKFARKLFGMVRKVFNHAALLSYIQANPALPVTSQGIKKKVEEKKDFYDTDELRDFMALVEKTNDIKKIALFRILAFTGIRKGELLALEWKDYRKSTLDINKAISHSPVGYEILPPKANSNRLLSLDEKTCKILDELHQTYPESTRIFESENGGMLSPSKPRKWLLEITKEKEIEPIRIHAFRHTHASLLFESGMSLKQVQYRLGHADLKTTMNIYTHITKFAKDKIGQQFSDYIDF,failed
19,MEQRLLNANERSTYGKNAAVKMRKAGRIPAVMYDRHGKSVPIDVDEREFMKLFKLVTESTIVTLNAAGKDYEVFIKDFQHDIVSDKIKHIDFYEVERGKTLRTKVKIRLEGSPEGVRHGGILETGITELELECLPKDLPARIIVDVSALDVNQSLHVRDIKLPEAVTVLTSDDITVAAIKFAAAESTTPAATEGEETEAAAAAPEPAAEDK,failed
20,EYQVLNLFICGIGTVGGSLVEQIRCQQQKLMMENGLKLHVVGIIDAAKAMFSREGFDLANFREELQKKGKDSNLQTIRDEIVGMNIFNSVFVDCTASPDIASLYKDLLQHNVSVVAANKIAASSAYENYRELKTIARQRGVKYLFETNVGAGLPIINTINDLIHSGDKILKIEAVLSGTLNYIFNK,failed
